Experiment [1] addresses T1, FLAG-tagged full-length NCL (NCL-FL 1-710) (UniProt P19338 1-710).
T1 construct: Nucleolin (NCL), residues 1-710, in pCMV-Tag2; the length of 710 residues fits human nucleolin; source: HEK293T, transiently transfected, in whole cell lysate; not shown: FLAG, N-terminal, kept
In words: ELISA; saturation binding: FLAG-NCL-FL from HEK293T whole cell lysate captured on anti-FLAG antibody-coated plate; TS5-p45 titrated, 4 C overnight; anti-His detection. As to conditions: one partner purified.

Experiment [2] addresses T2, Recombinant human NCL (FLAG-tagged, full length) (human, UniProt P19338 1-710).
T2 construct: Nucleolin (NCL), human, full length; also called rhNCL; recombinant NCL; source: bought: OriGene (TP319082)
In words: SPR; Biacore T200, CM5 chip; recombinant NCL captured by amine-coupled anti-NCL antibody; TS5-p45 as analyte, five dilutions, single-cycle kinetics; 25 C; HBST (10 mM HEPES, 150 mM NaCl, 50 uM EDTA, pH 7.4, 0.05% Tween-20); 1:1 model. As to conditions: both partners purified.

T1 sequence (P19338 whole entry, the tested form may be a part): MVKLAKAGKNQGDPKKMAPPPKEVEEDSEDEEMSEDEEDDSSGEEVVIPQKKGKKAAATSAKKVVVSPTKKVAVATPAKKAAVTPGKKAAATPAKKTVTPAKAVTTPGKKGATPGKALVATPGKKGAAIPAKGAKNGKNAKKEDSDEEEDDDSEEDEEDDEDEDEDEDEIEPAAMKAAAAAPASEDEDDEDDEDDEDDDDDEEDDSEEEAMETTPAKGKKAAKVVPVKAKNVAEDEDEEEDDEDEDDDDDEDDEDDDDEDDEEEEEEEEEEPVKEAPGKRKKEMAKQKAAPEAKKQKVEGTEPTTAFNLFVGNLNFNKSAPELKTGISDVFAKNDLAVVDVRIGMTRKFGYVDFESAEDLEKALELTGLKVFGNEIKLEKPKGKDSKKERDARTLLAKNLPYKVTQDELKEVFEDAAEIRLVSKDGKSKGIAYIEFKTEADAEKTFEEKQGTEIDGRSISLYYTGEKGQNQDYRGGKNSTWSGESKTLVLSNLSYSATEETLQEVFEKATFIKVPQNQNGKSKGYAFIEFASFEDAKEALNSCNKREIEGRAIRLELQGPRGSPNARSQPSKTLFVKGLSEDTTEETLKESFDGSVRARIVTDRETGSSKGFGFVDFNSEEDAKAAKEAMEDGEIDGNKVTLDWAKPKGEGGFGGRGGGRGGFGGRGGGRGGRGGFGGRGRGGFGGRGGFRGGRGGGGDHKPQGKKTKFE
T2 sequence (P19338 whole entry): as the sequence (P19338 whole entry, the tested form may be a part) above

B1: Recombinant human TS5-p45 (C-terminal His-tagged, Ser262-Pro622 truncate of ADAMTS5) (domain or fragment, UniProt Q9UNA0 262-622, looked up)
chain: SISRARQVELLLVADASMARLYGRGLQHYLLTLASIANRLYSHASIENHIRLAVVKVVVLGDKDKSLEVSKNAATTLKNFCKWQHQHNQLGDDHEEHYDAAILFTREDLCGHHSCDTLGMADVGTICSPERSCAVIEDDGLHAAFTVAHEIGHLLGLSHDDSKFCEETFGSTEDKRLMSSILTSIDASKPWSKCTSATITEFLDDGHGNCLLDLPRKQILGPEELPGQTYDATQQCNLTFGPEYSVCPGMDVCARLWCAVVRQGQMVCLTKKLPAVEGTPCGKGRICLQGKCVDKTKKKYYSTSSHGNWGSWGSWGQCSRSCGGGVQFAYRHCNNPAPRNNGRYCTGKRAIYRSCSLMPCP
notes: ADAMTS5 (A Disintegrin and Metalloproteinase with Thrombospondin Motifs 5, aggrecanase-2), human, residues Ser262-Pro622; also called 45 kDa truncate of ADAMTS5; source: bought: R&D Systems (2198-AD-01M); not shown: His tag, C-terminal, kept
With B1, the Kd in experiment [1] is around 0.026 µM; in experiment [2], around 0.028 µM.

The record behind these values is PMC8866485, “Cell surface nucleolin is a novel ADAMTS5 receptor mediating endothelial cell apoptosis” (Cell Death & Disease, 2022).
